Results reported in patent US20250388638A1, “COMPOSITIONS AND METHODS FOR ORAL DELIVERY” (IMAGINE PHARMA LLC, priority 2021, published 2025).
Like-named read-outs stand apart in the source and are kept apart here.

B1: MADDAGAAGGPGGPGGPGMGNRGGFRGGFGSGIRGRGRGRGRGRGRGRGAHAEGTFTSDVSSYLEGQAAKEFIAWLVRGRG (protein)
chain: MADDAGAAGGPGGPGGPGMGNRGGFRGGFGSGIRGRGRGRGRGRGRGRGAHAEGTFTSDVSSYLEGQAAKEFIAWLVRGRG
B2: MADDAGAAGGPGGPGGPGMGNRGGFRGGFGSGIRGRGRGRGRGRGRGRGAHAEGTFTSDVSSYLEGQAAKEFIAWLVRGRGMADDAGAAGGPGGPGGPGMGNRGGFRGGFGSGIRGRGRGRGRGRGRGRGA (protein)
chain: MADDAGAAGGPGGPGGPGMGNRGGFRGGFGSGIRGRGRGRGRGRGRGRGAHAEGTFTSDVSSYLEGQAAKEFIAWLVRGRGMADDAGAAGGPGGPGGPGMGNRGGFRGGFGSGIRGRGRGRGRGRGRGRGA

Tests used:
Caco-2 cells [1] = system: Caco-2 cells
Description: (§1) (See Example 1) Caco-2 cells may be cultured in the presence of a polypeptide construct comprising a polypeptide and a heterologous polypeptide and analyzed using a fluorescent assay to determine the percentage of uptake of the polypeptide construct into the cells.
(§2) Polypeptide conjugates may be studied in vitro using Caco-2 cells, to assess uptake and bioactivity of the therapeutic polypeptide.
(§3) To mimic the steric conditions in the intestine in vivo, Caco-2 cells may be cultured on permeable filter inserts (such as available from Becton Dickenson, Corning, Costar).
(§4) Various polypeptide constructs were labeled with Alexa Fluor™ Labeling Kits (ThermoFisher), to generate fluorescently labeled polypeptide constructs. Caco-2 cells were seeded in 12-well plates and incubated for 4 hours with the labeled polypeptides at concentrations ranging from 2-10 ug/mL. Following incubation, the plates were read on a Tecan Infinite M Nano+ and washed gently several times with PBS, then given fresh media, and the plates were re-read. The % of fluorescence remaining in the dish represents the relative amount of uptake of polypeptide construct compared to the amount originally applied to the cells.

[2] = system: glucose-stimulated islets; experiment: Inhibition of insulin secretion from glucose-stimulated islets (insulin ELISA); format: cell-based, human
Description: To determine if the polypeptide constructs comprising a polypeptide having an amino acid sequence identity according to SEQ ID NO:49 or 50 are biologically active following administration (PO), the ability of PCT-OCT to inhibit insulin secretion from glucose-stimulated islets was tested. Triplicates of 25 human islets (from a donor pancreas procured from an IIDP-approved islet center) were plated in a 96-well plate containing 100 μl of CMRL islet media (such as available from MediaTech). The islets were pre-incubated with either 100 μl (50%) serum (serum was collected from pancreas donor), 100 μl (50%) serum+PT-OCT, or 100 μl (50%) serum+PT-OCT that was exposed to thrombin for 45 minutes to cleave the polypeptide sequence from the therapeutic octapeptide of the polypeptide construct. Following a pre-incubation, the media and serum was removed and replaced with KREB's buffer solution containing 16.7 mM glucose, and incubated for an additional 30 minutes, at which point the KREB's buffer was collected. Insulin concentrations of the supernatant was measured using commercially available ELISA kits (such as available from Abcam). […] (See FIG. 19)

Caco-2 cells [3] = experiment: Caco-2 uptake assay with fluorescently labeled polypeptide constructs; details: for uptake (% of fluorescence remaining): Caco-2 uptake assay of Example 1
Description: as §1, §2, §3, §4

[4] = Blood levels of polypeptide fragment after PO administration of PT-OCT (FIG. 19); format: in vivo, Wistar rats; details: PO 600 μg/animal; 0, 3 and 5 hours
Description: Blood samples were taken from the animals at 0, 3 and 5 hours post administration.

blood glucose levels = experiment: Blood glucose levels after PO administration of GLP-1 agonist constructs; format: in vivo, Sprague Dawley rats; details: for blood glucose level: 600 ug PO
Text: GLP-1 agonists, such as exenatide and liraglutide are desirable candidates for formulation as an oral dose therapeutic. To test if a polypeptide according to SEQ ID 1-40, when linked to a GLP-1 agonist as a polypeptide construct, facilitates the transport of GLP-1 agonists from the stomach to the blood, following oral administration. The amino acid sequences for exenatide and liraglutide were used to clone the sequences behind (downstream) of a polypeptide comprising an amino acid sequence according to SEQ ID NO 1, in order to generate, using an expression vector system, peptide constructs comprising an amino acid sequence according to SEQ ID NOs: 42,44 (referred to in the figures as “PT-GA1” and “PT-GA2”, respectively). Also, generated was a polypeptide construct according to SEQ ID NO:46 (“PT-GA2B”), comprised of the liraglutide sequence flanked by a polypeptide according to SEQ ID NO 1 on both the carboxy and amino terminal end of the liraglutide sequence. […] (See FIG. 11) To test efficacy and bioavailability in vivo, Sprague Dawley rats were administered (PO) 600 ug of the compositions comprising polypeptide constructs selected from PT-GA1, PT-GA2 or PT-GA2B, blood was drawn at 0, 4, and 6 hrs. post-treatment, and blood glucose levels were measured. Following treatment, the blood glucose levels of the PT-GA1 treated animals went from 107 mg/dl at 0 hrs to 118 mg/dL at 4 hrs and dropped to 87.5 mg/dl at 6 hrs. post treatment, while the PT-GA2 and PT-GA2B were 98 mg/dl, 126, 111 mg/dL; and 102 mg/dL, 105 mg/dL, 104 mg/dl respectively.

| Molecule | blood glucose level (blood glucose levels; 0 hrs) | blood glucose level (blood glucose levels; 4 hrs post-treatment) | blood glucose level (blood glucose levels; 6 hrs post-treatment) | uptake (% of fluorescence remaining) (Caco-2 cells [3]) | other results |
| --- | --- | --- | --- | --- | --- |
| H-Met-Ala-Asp-Asp-Ala-Gly-Ala-Ala-Gly-Gly-Pro-Gly-Gly-Pro-Gly-Gly-Pro-Gly-Met-Gly-Asn-Arg-Gly-Gly-Phe-Arg-Gly-Gly-Phe-Gly-Ser-Gly-Ile-Arg-Gly-Arg-Gly-Arg-Gly-Arg-Gly-Arg-Gly-Arg-Gly-Arg-Gly-Arg-Gly-Nle (triazol-propionyl-D-Phe-Cys-Phe-D-Tru-Lys-Thr-Cys-Thr-ol)-OH [SEQ ID 50] |  |  |  |  | uptake by Caco-2 cells / targeted delivery (in words) (Caco-2 cells [1]): taken up by Caco-2 cells; relative insulin secretion by glucose-stimulated islet cells, compared to control (in words) [2]: reduction; decrease of insulin secretion of glucose-stimulated islets ([2]; human islets, 50% serum pre-incubation, 16.7 mM glucose): 46%; polypeptide constructs administered to Caco-2 cells taken up (Caco-2 cells [3]; in one example, PT-OCT fusion and PT-OCT click side-by-side): approximately 38%; levels of polypeptide fragment according to SEQ ID 53 in blood (in words) [4]: increasing levels |
| MADDAGAAGGPGGPGGPGMGNRGGFRGGFGSGIRGRGRGRGRGRGRGRGAFCFWKTCT [SEQ ID 49] |  |  |  |  | polypeptide constructs administered to Caco-2 cells taken up (Caco-2 cells [1]): approximately 38% |
| B1 | 98 mg/dL | 126 mg/dL | 111 mg/dL | 31.4% | blood glucose levels following oral administration (in words) (blood glucose levels; 600 μg in PBS): decrease in blood glucose levels |
| B2 | 102 mg/dL | 105 mg/dL | 104 mg/dL | 29.4% |  |
